The source of these data is article PMC2673437 (Nucleic Acids Research, 2009).

Read-outs that look alike come from different tables or passages of the source. Where no end group is shown, it is not given here. The star is where a group is joined. Biotin = O=C1N[C@H]2[C@H](CS[C@H]2CCCCC(=O)*)N1

Test [1] has as its target T1, Bacillus stearothermophilus DnaB helicase (B. stearothermophilus, UniProt Q9X4C9 1-454).
T1 sequence (looked up): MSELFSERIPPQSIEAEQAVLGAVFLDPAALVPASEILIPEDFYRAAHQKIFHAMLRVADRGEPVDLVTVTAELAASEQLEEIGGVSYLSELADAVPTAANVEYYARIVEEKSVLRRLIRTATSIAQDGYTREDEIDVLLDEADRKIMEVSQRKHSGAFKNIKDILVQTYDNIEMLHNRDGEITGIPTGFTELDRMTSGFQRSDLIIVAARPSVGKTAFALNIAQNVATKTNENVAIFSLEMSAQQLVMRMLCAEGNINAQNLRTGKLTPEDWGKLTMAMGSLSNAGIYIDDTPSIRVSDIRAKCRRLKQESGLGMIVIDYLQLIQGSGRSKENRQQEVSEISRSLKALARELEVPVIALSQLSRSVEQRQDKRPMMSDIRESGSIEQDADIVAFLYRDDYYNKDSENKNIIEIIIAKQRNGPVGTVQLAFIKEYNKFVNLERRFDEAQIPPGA
The test is described as follows: SPR. In general terms: SPR reads the build-up and loss of mass on a sensor chip optically.

Test [2] concerns the target T1, Bacillus stearothermophilus DnaB …. The test is described as follows: SPR. This is another data set of the same source.

As a reminder, the Kd is a measure of binding affinity in units of concentration. Low values mean a tighter complex, high ones a looser complex.

For the molecule MEPIGRSLQGVTGRPDFQ [unmodified peptide corresponding to residues 1-18 of DnaI], the dissociation constant Kd in test [1] is greater than 140 µM.

B1: DnaI-N106 (N-terminal 106 residues of B. subtilis DnaI) (domain or fragment, UniProt P06567 1-106, looked up)
chain: MEPIGRSLQGVTGRPDFQKRLEQMKEKVMKDQDVQAFLKENEEVIDQKMIEKSLNKLYEYIEQSKNCSYCSEDENCNNLLEGYHPKLVVNGRSIDIEYYECPVKRK
On to B1, for which, in test [1], the Kd amounted to 18.5 µM and the “stoichiometry N” value is 1.8 molecules per Bst DnaB subunit.

B2: DnaI-N123 (residues 1-123 of B. subtilis DnaI) (domain or fragment, UniProt P06567 1-123, looked up)
chain: MEPIGRSLQGVTGRPDFQKRLEQMKEKVMKDQDVQAFLKENEEVIDQKMIEKSLNKLYEYIEQSKNCSYCSEDENCNNLLEGYHPKLVVNGRSIDIEYYECPVKRKLDQQKKQQSLMKSMYIQ
Turning to B2, in test [1], binding was characterised by a dissociation constant (Kd) of 7.3 µM and the “stoichiometry N” value was 1.7 molecules per Bst DnaB subunit.

B3: DnaI-N132 (residues 1-132 of B. subtilis DnaI, C-terminal His6) (domain or fragment, UniProt P06567 1-132, looked up)
chain: MEPIGRSLQGVTGRPDFQKRLEQMKEKVMKDQDVQAFLKENEEVIDQKMIEKSLNKLYEYIEQSKNCSYCSEDENCNNLLEGYHPKLVVNGRSIDIEYYECPVKRKLDQQKKQQSLMKSMYIQQDLLGATFQ
Take B3: in test [1], the Kd is 0.65 µM and the “stoichiometry N” value is 0.8 molecules per Bst DnaB subunit. Take Biotin-SGMEPIGRSLQGVTGRPDFQ [N-terminally biotinylated DnaI-N-peptide (DnaI residues 1-18, preceded by biotin-Ser-Gly)]: the Kd in test [2] was no less than 50 µM.
